The test system of series [1] is PE-Bxb1 integrase fusion (PASTE v3; printed Bxbl). Put plainly: cell_activity. Particulars: PASTE v3 comparator, Hepa1c1c7; att sequences not given.
Series [2] relates to PE-Bce integrase fusion (PASTE v4; printed Bcel). Kind of series: cell_activity. Particulars: PASTE v4 comparator, Hepa1c1c7; att sequences not given.

In the case of Bxb1 att sites (PASTE v3), in series [1], the activity (% mCherry-positive cells) was found to be 3.8. Consider Bce att sites (PASTE v4), for which the activity (% mCherry-positive cells) in series [2] was 0.5.

The values are drawn from patent US20240401013.
